The text below walks through data of paper PMC4631838, “Molecular architecture of the yeast Mediator complex” (eLife, 2015).

What all share (assay): cross-linking; BS3 (unlabeled, or 50:50 with 2H12-labeled BS3) on the purified native holoenzyme; 150 mM NaPO4, 150 mM KOAc, pH 7.5, 5% glycerol, 2 mM DTT; procedure A 2.7 mM reagent 120 min on ice; trypsin digest, LC-MS/MS, Protein Prospector
What all share (conditions): both partners purified

Assay [1] deals with T1, Med17 (Srb4), Mediator Head module subunit (S. cerevisiae, UniProt P32569 1-687).
T1 construct: Med17 (Srb4), S. cerevisiae, endogenous, residues 1-687 spoken of; cross-linking was done after cleavage; also called Med17p; source: endogenous, S. cerevisiae CB010 double-tagged strain; within the purified native holoenzyme; not shown: TAP, N-terminal, cleaved
T1 sequence (looked up): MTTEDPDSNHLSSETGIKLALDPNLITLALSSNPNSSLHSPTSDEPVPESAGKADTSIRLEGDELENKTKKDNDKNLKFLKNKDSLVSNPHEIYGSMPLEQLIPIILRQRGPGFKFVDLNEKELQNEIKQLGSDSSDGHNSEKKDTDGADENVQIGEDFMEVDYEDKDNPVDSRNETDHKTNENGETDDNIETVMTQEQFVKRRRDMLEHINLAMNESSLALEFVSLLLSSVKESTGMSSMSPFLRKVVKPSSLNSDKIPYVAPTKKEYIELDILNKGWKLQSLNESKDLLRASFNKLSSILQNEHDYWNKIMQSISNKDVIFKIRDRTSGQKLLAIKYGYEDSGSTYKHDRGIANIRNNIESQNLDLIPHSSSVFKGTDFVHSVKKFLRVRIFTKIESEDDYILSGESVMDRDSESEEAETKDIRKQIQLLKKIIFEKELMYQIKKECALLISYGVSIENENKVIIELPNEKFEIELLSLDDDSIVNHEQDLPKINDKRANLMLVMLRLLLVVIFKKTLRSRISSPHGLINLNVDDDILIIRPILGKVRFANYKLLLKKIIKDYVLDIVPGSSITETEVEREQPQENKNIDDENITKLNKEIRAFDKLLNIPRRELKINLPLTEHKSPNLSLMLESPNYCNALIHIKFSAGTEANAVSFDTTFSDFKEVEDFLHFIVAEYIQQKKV

Assay [2] deals with T2, Med14 (Rgr1), Mediator subunit (S. cerevisiae, UniProt P19263 1-1082).
T2 construct: Med14 (Rgr1), S. cerevisiae, endogenous, residues 1-1082 spoken of; source: endogenous, S. cerevisiae CB010 double-tagged strain; within the purified native holoenzyme
T2 sequence (looked up): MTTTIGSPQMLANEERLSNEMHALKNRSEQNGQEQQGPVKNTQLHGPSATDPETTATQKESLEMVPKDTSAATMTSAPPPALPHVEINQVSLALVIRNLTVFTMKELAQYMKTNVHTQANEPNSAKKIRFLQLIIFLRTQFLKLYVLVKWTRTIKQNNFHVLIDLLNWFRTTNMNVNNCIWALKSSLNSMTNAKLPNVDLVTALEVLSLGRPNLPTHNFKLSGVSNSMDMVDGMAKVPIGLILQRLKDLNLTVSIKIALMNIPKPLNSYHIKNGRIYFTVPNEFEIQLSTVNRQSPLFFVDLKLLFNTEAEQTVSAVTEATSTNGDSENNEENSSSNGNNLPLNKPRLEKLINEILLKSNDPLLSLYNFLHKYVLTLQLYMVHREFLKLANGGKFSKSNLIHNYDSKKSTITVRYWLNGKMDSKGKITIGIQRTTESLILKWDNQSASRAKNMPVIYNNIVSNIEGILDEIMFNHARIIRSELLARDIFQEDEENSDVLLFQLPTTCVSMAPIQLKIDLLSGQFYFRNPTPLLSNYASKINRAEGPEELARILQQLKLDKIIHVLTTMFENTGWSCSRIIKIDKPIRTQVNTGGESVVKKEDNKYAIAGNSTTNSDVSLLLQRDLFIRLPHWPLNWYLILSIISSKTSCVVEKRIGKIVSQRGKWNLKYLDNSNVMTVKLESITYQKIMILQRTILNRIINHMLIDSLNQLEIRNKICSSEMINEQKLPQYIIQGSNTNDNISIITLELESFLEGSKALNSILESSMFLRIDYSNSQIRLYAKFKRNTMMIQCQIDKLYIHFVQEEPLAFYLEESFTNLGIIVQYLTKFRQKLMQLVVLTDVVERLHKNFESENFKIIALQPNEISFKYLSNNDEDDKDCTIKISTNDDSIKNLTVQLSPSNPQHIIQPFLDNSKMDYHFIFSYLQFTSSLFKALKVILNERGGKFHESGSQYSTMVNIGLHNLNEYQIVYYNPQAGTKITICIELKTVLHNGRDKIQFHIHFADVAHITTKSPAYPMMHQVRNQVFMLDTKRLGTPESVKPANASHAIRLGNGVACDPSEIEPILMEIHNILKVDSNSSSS

The target of assay [3] is T3, Med1, Mediator Middle module subunit (S. cerevisiae, UniProt Q12321 1-566).
T3 construct: Med1, S. cerevisiae, endogenous; source: endogenous, S. cerevisiae CB010 double-tagged strain; within the purified native holoenzyme
T3 sequence (looked up): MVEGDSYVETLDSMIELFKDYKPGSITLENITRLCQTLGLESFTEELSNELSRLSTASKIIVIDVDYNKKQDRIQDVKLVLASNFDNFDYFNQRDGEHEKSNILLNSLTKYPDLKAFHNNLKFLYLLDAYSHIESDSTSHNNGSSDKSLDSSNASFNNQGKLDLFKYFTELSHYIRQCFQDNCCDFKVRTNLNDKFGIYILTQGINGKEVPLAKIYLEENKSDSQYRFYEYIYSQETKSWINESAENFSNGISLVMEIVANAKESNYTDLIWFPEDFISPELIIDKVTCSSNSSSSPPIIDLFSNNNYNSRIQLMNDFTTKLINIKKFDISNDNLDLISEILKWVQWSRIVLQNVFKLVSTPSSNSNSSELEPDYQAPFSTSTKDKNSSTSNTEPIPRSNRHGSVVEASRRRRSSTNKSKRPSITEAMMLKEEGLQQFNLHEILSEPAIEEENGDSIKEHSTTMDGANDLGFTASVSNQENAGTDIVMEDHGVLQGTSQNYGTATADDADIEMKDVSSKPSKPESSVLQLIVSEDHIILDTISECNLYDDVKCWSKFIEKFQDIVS

B1: Med7, Mediator Middle module subunit (natural protein, S. cerevisiae, UniProt Q08278 1-222, looked up)
chain: MSNDPGNEVSSLYPPPPPYVKFFTQSNLEKLPKYKEKKAASAKQTAPNNSNGGSEEEITCALDYLIPPPMPKNQQYRAFGSIWQVKDQLPDLESMGLTQLYKKSTENESTNYQYKIQELRKLLKSLLLNYLELIGVLSINPDMYERKVENIRTILVNIHHLLNEYRPHQSRESLIMLLEEQLEYKRGEIREIEQVCKQVHDKLTSIQDTLRTGSQSPPSSSQ
notes: Med7, S. cerevisiae, endogenous; source: endogenous, S. cerevisiae CB010 double-tagged strain; within the purified native holoenzyme
B1: the binding result in assay [1] was “binds”.

B2: Med21, Mediator Middle module subunit (natural protein, S. cerevisiae, UniProt P47822 1-140, looked up)
chain: MTDRLTQLQICLDQMTEQFCATLNYIDKNHGFERLTVNEPQMSDKHATVVPPEEFSNTIDELSTDIILKTRQINKLIDSLPGVDVSAEEQLRKIDMLQKKLVEVEDEKIEAIKKKEKLLRHVDSLIEDFVDGIANSKKST
notes: Med21 (printed old name Sbr7), S. cerevisiae, endogenous; also called Sbr7; source: endogenous, S. cerevisiae CB010 double-tagged strain; within the purified native holoenzyme
B2: the binding result in assay [1] and in assay [2] was “binds” in each case.

B3: Med9 (Cse2), Mediator Middle module subunit (natural protein, S. cerevisiae, UniProt P33308 1-149, looked up)
chain: MNLQNNVLNQIHQILLPTNPTLDKPNAEATKEEFSSAENRDEKDYLTNQQPKNLSTPSTSSNGEFIPHIFYSLHQIRKDPNNLSNQLETLTGSIRHRLKLCKSLISENEDTKDLLSKSPSEWQDIIHQREQELQIKRDVLDDLYRKLQR
notes: Med9 (Cse2), S. cerevisiae, endogenous; source: endogenous, S. cerevisiae CB010 double-tagged strain; within the purified native holoenzyme
In the case of B3, the binding result in assay [2] and in assay [3] was “binds” each time.
